Data published in patent publication US20200109390A1 (Chugai, published 2020).

Molecular target: T1, human blood coagulation factor IX (human, UniProt P00740 47-461, Gla (gamma-carboxyglutamate) residues in the GLA domain of native FIX); the twelve Glu of the GLA domain are at positions 53, 54, 61, 63, 66, 67, 72, 73, 76, 79, 82 and 86 of SEQ ID NO: 1 (positions …)
T1 construct: The FIX co-administered with the antibodies was Christmassin M I.V; antibody A was raised against human FIXa; also called FIX; human FIX
T1 sequence (P00740 47-461): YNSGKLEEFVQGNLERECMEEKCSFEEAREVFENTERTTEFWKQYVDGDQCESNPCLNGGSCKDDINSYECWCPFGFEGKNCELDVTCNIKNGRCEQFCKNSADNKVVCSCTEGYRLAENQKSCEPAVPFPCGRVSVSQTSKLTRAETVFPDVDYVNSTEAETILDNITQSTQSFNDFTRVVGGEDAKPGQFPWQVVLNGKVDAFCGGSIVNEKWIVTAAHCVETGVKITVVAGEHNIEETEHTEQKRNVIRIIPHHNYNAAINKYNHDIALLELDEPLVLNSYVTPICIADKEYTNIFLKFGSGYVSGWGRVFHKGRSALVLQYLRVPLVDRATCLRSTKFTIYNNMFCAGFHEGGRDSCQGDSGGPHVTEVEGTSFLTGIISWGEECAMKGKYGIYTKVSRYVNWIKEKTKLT
Experiment: not described (statement in Example 4)
Protocol: PK tests using mice were performed by the following method. Through the tail vein or under the dorsal skin of mice (C57BL/6J mouse, Charles River Japan), FIX (Christmassin M I.V.) was administered at a dose of 0.6 mg/kg by itself or simultaneously with 8 mg/kg of an anti-FIX antibody A or anti-FIX antibody B, in a single dose. Blood was collected five minutes, two hours, four hours, seven hours, one day, two days, seven days, 14 days, 21 days, and 28 days after the administration. The collected blood was immediately subjected to separation by centrifugation at 4° C. and 15,000 rpm for 15 minutes to obtain the plasma. The separated plasma was stored in a freezer set to −20° C. or lower until performing the measurements.
The concentration of FIX in mouse plasma was determined by ELISA. […] After stopping the reaction by adding a reaction-stopping solution (AssayPro), the 450-nm absorbance of the reaction solution in each well was measured using a microplate reader. The concentrations of FIX in mouse plasma were calculated from the absorbances of the calibration curve using SOFTmax PRO analysis software (Molecular Devices).

Row | binding result | Binder
1 | binds | anti-FIX antibody B (antibody, human IgG1, kappa, V domains shown, expressed transiently in FS293 cells) VH: QVQLVQSGSELKKPGASVKVSCKASGYTFTNYGMNWVRQAPGQGLKWMGWINTRNGKSTYVDDFKGRFVFSLDSSVSTAYLQISSLKADDTAVYYCTREGNMDGYFPFTYWGQGTLVTVSS VL: QIVLTQSPSSLSASVGDRVTITCRASSSVNYMHWYQQKPGKAPKPWIYATSNLASGVPSRFSGSGSGTDYTFTISSLQPEDIATYYCQQWSINPRTFGQGTKVEIKR
2 | binds | anti-FIX antibody A (antibody, human IgG1, kappa, V domains shown, Obtained by immunizing an animal with human FIXa) VH: QVQLQQSGAELAKPGASVKLSCKASGYTFTSSWMHWIKQRPGQGLEWLGYINPSSGYTKYNRKFRDKATLTADKSSSTAYMQLTSLTYEDSAVYYCARGGNGYYFDYWGQGTTLTVSS VL: DIVMTQSHKFMSTSVGDRVSITCKASQDVGTAVAWYQQKPGQSPKLLIYWASTRHTGVPDRFTGSRYGTDFTLTISNVQSEDLADYLCQQYSNYITFGGGTKLELKR
